As a reminder, the Kd is the concentration at which binding is half-saturated. Read a high Kd as lower affinity.

These results are taken from article PMC13787487 (2026).

What all share (assay): FP
One assay has as its target T1, SHANK1 PDZ (UniProt Q9Y566).
T1 chain: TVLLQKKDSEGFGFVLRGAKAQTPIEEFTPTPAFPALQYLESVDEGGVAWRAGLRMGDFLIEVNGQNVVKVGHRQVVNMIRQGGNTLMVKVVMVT

For a further assay, the target named is T2, PSD-95 PDZ2 (UniProt P78352).
T2 chain: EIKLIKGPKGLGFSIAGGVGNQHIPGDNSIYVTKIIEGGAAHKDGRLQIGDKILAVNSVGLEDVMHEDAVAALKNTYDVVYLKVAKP

The target in the next assay is T3, PSD-95 PDZ3 (UniProt P78352).
T3 chain: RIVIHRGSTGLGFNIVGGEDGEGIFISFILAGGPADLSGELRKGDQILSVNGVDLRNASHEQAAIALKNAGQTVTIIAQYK

For another assay, the target named is T4, SHANK3 PDZ (UniProt Q9BYB0).
T4 chain: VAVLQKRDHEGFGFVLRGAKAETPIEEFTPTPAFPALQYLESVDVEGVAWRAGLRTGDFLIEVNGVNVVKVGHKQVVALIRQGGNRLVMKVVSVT

For the next assay, the target named is T5, SHANK2 PDZ (UniProt Q9UPX8).
T5 chain: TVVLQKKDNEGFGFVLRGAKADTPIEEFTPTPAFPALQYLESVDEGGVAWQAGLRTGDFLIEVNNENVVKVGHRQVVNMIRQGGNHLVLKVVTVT

As to YNRTNRSRMPNLNDLKETAL [CDKL5-1 941-960], the dissociation constant (Kd) with SHANK1 PDZ was 7.6 µM; with PSD-95 PDZ2, 31.3 µM; with PSD-95 PDZ3, 40.7 µM; in the assay with SHANK3 PDZ, 8.6 µM; in the assay with SHANK2 PDZ, 5.2 µM.
